What was measured:
[1] = biological target: T1, TGFβ2 (transforming growth factor beta 2) (Homo sapiens) (UniProt P61812); assay: filter; details: 2'-F C and U
T1 sequence: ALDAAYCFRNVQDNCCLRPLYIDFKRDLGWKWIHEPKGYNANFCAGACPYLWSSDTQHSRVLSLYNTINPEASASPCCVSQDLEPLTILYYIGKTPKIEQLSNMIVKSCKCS

[2] = biological target: T2, TGFβ3 (transforming growth factor beta 3) (Homo sapiens) (UniProt P10600); assay: filter; details: 2'-F C and U; round 0 pool
T2 sequence: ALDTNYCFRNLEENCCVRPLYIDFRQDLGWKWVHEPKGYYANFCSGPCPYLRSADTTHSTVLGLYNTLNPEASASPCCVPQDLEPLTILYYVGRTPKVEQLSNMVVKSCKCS

Row | Sequence | Kd ([1]; biased round 0 pool, protein excess) [µM] | Kd ([1]; round 0 pool, printed as >10 [M) [µM] | Kd [2] [µM]
1 | GGGAGGACGAUGCGGNNNNNNNNNNNNNNNNNNNNNNNNNNNNNNNNNNCAGACGACUCGCCCGA [34N7.21a-21 biased round 0 pool] | 0.87 | – | –
2 | GGGAGGACGAUGCGGNNNNNNNNNNNNNNNNNNNNNNNNNNNNNNNNNNNNNNNNCAGACGACUCGCCCGA [round 0 40N7 pool] | – | > 10 | > 10

Source: patent US20040258656
